This is an account of results in article PMC10403316.

Experiment [1] deals with human UBR5 E3 ubiquitin ligase, full length, with an N-terminal FLAG tag (human) (UniProt O95071). Briefly: cryo-EM structure. Particulars: remark: other sources report otherwise.
Experiment [2] has the same target. As to the kind of experiment: SEC. Particulars: remark: other sources report otherwise.

Several values for one entry are separate records, joined by “and”; a condition that tells them apart may be missing. Equal values may be shown once.

The term stoichiometry N denotes the number of molecules, sites or subunits per partner or assembly. With “human UBR5 E3 ubiquitin ligase, full length, with an N-terminal FLAG tag, O95071 1-2799”, the stoichiometry N in experiment [1] was 2; in experiment [2], 2 and 4.
